Common to all, as to details: nanopore translocation; background mutations not given
For series [1], the target named is T1, Dda 1993 K177E K177E (Enterobacteria phage T4) (UniProt P32270).
T1 sequence: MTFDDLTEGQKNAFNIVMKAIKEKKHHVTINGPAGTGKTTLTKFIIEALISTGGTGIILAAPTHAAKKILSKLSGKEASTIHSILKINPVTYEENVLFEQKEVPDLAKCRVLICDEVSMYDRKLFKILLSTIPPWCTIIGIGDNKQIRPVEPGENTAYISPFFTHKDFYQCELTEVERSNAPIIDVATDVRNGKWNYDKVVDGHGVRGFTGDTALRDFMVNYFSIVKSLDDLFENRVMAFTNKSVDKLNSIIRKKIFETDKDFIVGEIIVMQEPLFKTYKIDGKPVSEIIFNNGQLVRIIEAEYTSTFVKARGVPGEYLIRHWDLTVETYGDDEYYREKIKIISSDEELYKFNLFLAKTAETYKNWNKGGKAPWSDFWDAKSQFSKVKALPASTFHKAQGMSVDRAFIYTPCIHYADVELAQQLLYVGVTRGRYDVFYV

For series [2], the target named is T2, Dda 1993 K177F K177F (Enterobacteria phage T4) (UniProt P32270).
T2 sequence: T1 sequence with E177F

For series [3], the target named is T3, Dda 1993 K177H K177H (Enterobacteria phage T4) (UniProt P32270).
T3 sequence: T1 sequence with E177H

Series [4] has as its target T4, Dda 1993 K177I K177I (Enterobacteria phage T4) (UniProt P32270).
T4 sequence: T1 sequence with E177I

The target of series [5] is T5, Dda 1993 K177Q K177Q (Enterobacteria phage T4) (UniProt P32270).
T5 sequence: T1 sequence with E177Q

Series [6] deals with T6, Dda 1993 K177S K177S (Enterobacteria phage T4) (UniProt P32270).
T6 sequence: T1 sequence with E177S

Substitutions are numbered along the chain they refer to.

Activity (bps speed delta vs control) data for one substance are collected here from patent publication US20250382602.

For the substance “barcoded 3.6 kb DNA analyte ligated to sequencing Y adaptor”, the activity (bps speed delta vs control) is 58.7 in series [1]; -33.4 in series [2]; 10.6 in series [3]; 43 in series [4]; 59.7 in series [5]; -31.1 in series [6].
